Experimental data: FireProtDB (doi:10.1021/bi00177a023)

Details: Aspergillus oryzae (strain ATCC 42149 / RIB 40), Thermal, DSC, NaCl 80 mM, reversible: yes, whole UniProt chain shown
[1] = pH 6, Sodium cacodylate-HCl 10 mM
[2] = pH 6.5, Sodium cacodylate-HCl 10 mM
[3] = pH 7, Sodium cacodylate-HCl 10 mM
[4] = pH 8.6, Sodium borate-HCl 10 mM

B1: Guanyl-specific ribonuclease T1 wild type, P00651 (protein)
chain: MMYSKLLTLTTLLLPTALALPSLVERACDYTCGSNCYSSSDVSTAQAAGYQLHEDGETVGSNSYPHKYNNYEGFDFSVSSPYYEWPILSSGDVYSGGSPGADRVVFNENNQLAGVITHTGASGNNFVECT
Tm (pH 5, Sodium acetate 10 mM): 58.8 °C
heat capacity change of unfolding (pH 5, Sodium acetate 10 mM): 0.89 kcal/mol/K
unfolding enthalpy (calorimetric) (pH 5, Sodium acetate 10 mM): 112 kcal/mol
unfolding enthalpy (van 't Hoff) (pH 5, Sodium acetate 10 mM): 115 kcal/mol
Tm [1]: 54.1 °C
heat capacity change of unfolding [1]: 1.28 kcal/mol/K
unfolding enthalpy (calorimetric) [1]: 111 kcal/mol
unfolding enthalpy (van 't Hoff) [1]: 110 kcal/mol
Tm [2]: 50.9 °C
heat capacity change of unfolding [2]: 1.23 kcal/mol/K
unfolding enthalpy (calorimetric) [2]: 106 kcal/mol
unfolding enthalpy (van 't Hoff) [2]: 112 kcal/mol
Tm [3]: 48.8 °C
heat capacity change of unfolding [3]: 1.21 kcal/mol/K
unfolding enthalpy (calorimetric) [3]: 108 kcal/mol
unfolding enthalpy (van 't Hoff) [3]: 108 kcal/mol
Tm [4]: 43.4 °C
heat capacity change of unfolding [4]: 1.2 kcal/mol/K
unfolding enthalpy (calorimetric) [4]: 94.7 kcal/mol
unfolding enthalpy (van 't Hoff) [4]: 109 kcal/mol
Tm (pH 9.7, glycine-NaOH 10 mM): 40.7 °C
heat capacity change of unfolding (pH 9.7, glycine-NaOH 10 mM): 1.22 kcal/mol/K
unfolding enthalpy (calorimetric) (pH 9.7, glycine-NaOH 10 mM): 79.7 kcal/mol
unfolding enthalpy (van 't Hoff) (pH 9.7, glycine-NaOH 10 mM): 102 kcal/mol
